Experimental findings from PMC13436963 are described below.

To fix the notation:
B1: Drosophila Notch LNR domain fused to split firefly luciferase fragments (LNR–NLuc and LNR–CLuc) [Drosophila melanogaster] / Drosophila Notch LNR domain fused to split firefly luciferase fragments (LNR–NLuc and LNR–CLuc) … (parent)
chain 1: GSGNDRYAADLEQQRAMCDKRGCTEKQGNGICDSDCNTYACNFDGNDCSLGINPWANCTANECWNKFKNGKCNEECNNAACHYDGHDCERKLKSCDSLFDAYCQKHYGDGFCDYGCNNAECSWDGLDCENKTQSPV
chain 2: B1 chain 1

In this assay the parent is B1. Put plainly: split-luciferase complementation assay. Conditions: with Drosophila Notch LNR domain fused to split firefly luciferase fragments (LNR–NLuc and LNR–CLuc) [Drosophila melanogaster], S2 cells, n=5, parent: 1, read off a plot.

As to chain 1 H106A, the ratio to parent (bar labelled 'H1570A + WT' (N-Luc / C-Luc)) worked out at 1 and the ratio to parent (bar labelled 'WT + H1570A' (N-Luc / C-Luc)) stood at 0.94.
With chain 1 F99A, the ratio to parent (bar labelled 'F1563A + WT' (N-Luc / C-Luc)) was found to be 0.97 and the ratio to parent (bar labelled 'WT + F1563A' (N-Luc / C-Luc)) was 1.1.
